A word on the Kd: it is the free concentration of one partner at which half of the binding sites on the other are occupied at equilibrium, for simple one-to-one binding.

Assay [1] concerns the target T1, Transmembrane activator and calcium modulator and cyclophilin ligand (CAML) interactor (TACI), on cells (human, UniProt O14836 1-293).
T1 chain: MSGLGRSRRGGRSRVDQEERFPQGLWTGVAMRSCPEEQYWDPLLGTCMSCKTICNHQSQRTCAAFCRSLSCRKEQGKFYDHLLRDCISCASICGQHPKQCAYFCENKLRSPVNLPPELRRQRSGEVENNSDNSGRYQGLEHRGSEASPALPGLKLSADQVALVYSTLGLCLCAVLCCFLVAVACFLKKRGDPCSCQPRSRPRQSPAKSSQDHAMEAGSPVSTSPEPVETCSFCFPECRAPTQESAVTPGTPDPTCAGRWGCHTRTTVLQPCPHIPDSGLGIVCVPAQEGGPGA
The experiment in a line: Biacore SPR.

Assay [2] addresses T2, Transmembrane activator and calcium modulator and cyclophilin ligand (CAML) interactor (TACI), on cells (human, UniProt O14836 1-293).
T2 construct: whole, on cells; also called TNFRSF13B; SupT1 TACI cells
T2 sequence (looked up): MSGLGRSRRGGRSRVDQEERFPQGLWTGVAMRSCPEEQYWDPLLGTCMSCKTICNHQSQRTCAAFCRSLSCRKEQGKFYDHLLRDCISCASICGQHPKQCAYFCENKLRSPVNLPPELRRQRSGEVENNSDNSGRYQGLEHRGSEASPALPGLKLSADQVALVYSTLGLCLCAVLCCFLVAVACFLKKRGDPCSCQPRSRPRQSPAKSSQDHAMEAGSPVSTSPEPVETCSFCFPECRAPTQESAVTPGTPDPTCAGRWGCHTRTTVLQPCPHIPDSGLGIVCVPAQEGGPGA
Kind of assay: flow cytometry on TACI positive SupT1 cells (FIG. 6b). An excerpt:
b) Confirmatory analysis of TACI binding by flow cytometry. Hybridoma lines were screened on TACI positive and BCMA positive SupT1 cells. The four hybridomas with the highest reactivity to SupT1 TACI cells were chosen for subcloning and characterisation
Five mice with TACI positive sera were selected for a final immunization boost before the spleens were harvested for B cell isolation and hybridoma production. Hybridoma fusions of 10×96-well plates with lymphocytes from the selected mice were performed. Hybridoma supernatants were screened for reactive anti-TACI antibodies by ELISA screening against recombinant human TACI purified protein (Peprotech, 310-17), representative data is shown in FIG. 6a. ELISA positive hybridoma supernatants were tested by flow cytometry, on SupT1 cells engineered to overexpress TACI. As a control BCMA expressing SupT1 cells were used, FIG. 6b. Candidate hybridomas were expanded.
(In general: A flow cytometer gives signals particle by particle.)

B1: 1G6 anti-TACI monoclonal antibody (mouse hybridoma) (antibody, V domains shown)
VH: QVQLKQSGPGLVAPSQSLSITCTVSGFSLTSYGVDWVRQSPGKGLEWLGIIWGGGRTNYNSAFKSRLSISKDNSKSQVFLKMNSLQTDDTAMYYCASGDRAADYWGQGTSVTVSS
VL: DIVMTQSQKFMSTTVGDRVTITCKASQNVGTAVAWYQQKPGQSPKLLIYSASNRYTGVPVRFTGSGSGTDFTLTINNMQSEDLADYFCQQYSSYPLTFGAGTKLELK
notes: Tested as hybridoma supernatant from BalBC mice
Take B1: the Kd in assay [1] came to 0.21 nM. In addition, in assay [2], the binding result is reported as “binds”.

B2: 2G2 anti-TACI monoclonal antibody (mouse hybridoma) (antibody, V domains shown)
VH: QVTLKESGPGMLQPSQTLSLTCSFSGFSLSTFGMGVGWIRQPSGKGLEWLAHIWWDDAQYSNPALRSRLTISKDTSKNQVFLKIANVDTADTATYYCSRIHSYYSYDEGFAYWGQGTLVTVSS
VL: DIVMTQSQKFMSTTVGDRVSITCKASQNVGTAVAWYQQKPGQSPKLLIYSASNRYTGVPDRFTGSGSGTDFTLTISNMQSEDLADYFCQQYSSYRTFGGGTKLEIKR
notes: as for B1
As to B2, the Kd in assay [1] came to 0.924 nM. In addition, in assay [2], the binding result is “binds”.

B3: 2H6 anti-TACI monoclonal antibody (mouse hybridoma) (antibody, V domains shown)
VH: EVQLQQSGPELVKPGASVRMSCKASGYTFTNYVMHWVKQKPGQGLEWIGYINPSNDDTKYTEKFKGKATLTSDKSSSTAYMELSSLTSEDSAVYYCARGTHGDYYALDYWGQGTSVTVSS
VL: DIVLTQSPASLAVSLGQSVTISCRASESVEYYGTSLMQWYQQKPGQAPKLLIYGASNVESGVPARFSGSGSGTDFSLNIHPVEEDDIAMYFCQQSRKVPWTFGGGTKLEI
B3: the Kd in assay [1] amounted to 0.051 nM.

B4: 4B11 anti-TACI monoclonal antibody (mouse hybridoma) (antibody, V domains shown)
VH: EVQLQQSVAELVRPGASVKLSCTASGFNIKNTYIHWVKQRPEQGLEWIGKIDPANGNSEYAPKFQGKATITADTSSNTAYLQLSSLTSEDTTIYYCTSGYGAYWGQGTTLTVSS
VL: DIVLSQSPSSLAVSIGEKVTLSCKSSQSLLYSSNQKNYLAWFQQKPGQSLKLLIYWASTREFGVPDRFTGSGSGTDFTLTISSVKTEDLAVYYCQQYYTWTFGGGTKLEIK
notes: as for B1
For the molecule B4, in assay [1], the Kd was found to be 0.379 nM. Also, the binding result in assay [2] is on record as “binds”.

Values taken from patent publication US20190352409A1 (AUTOLUS, published 2019).
